{"source": "patent US9872887B2", "about": "“Extracellular matrix-binding synthetic peptidoglycans” (Purdue Research Foundation, priority 2013, dated 2018)", "test": "Rheological measurements on bovine vitreous", "conditions": "trypsin treated vs no treatment and PBS buffer; FIG. 3A", "source_text": "The synthetic peptidoglycans according to the present disclosure can be tested as follows. Viscoelastic properties can be measured using a rheometer, for example the TAInstruments ARG2 rheometer. A cone and plate geometry or a parallel plate geometry can be used. Vitreous humor (e.g., bovine) can be placed within the geometry. The temperature can be controlled and frequency sweeps can be performed from ranges of about 0.1 Hz to about 100 Hz (e.g., 1 Hz) and storage, loss, and complex modulus can be measured at an oscillatory shear stress between about 0.1 Pa and about 10 Pa (e.g., 10 Pa). Temperature: 37° C."}
{"substance": "trypsin", "values": [{"measurement": "viscosity of bovine vitreous", "value": "lower viscosity"}]}
